For 4 substances, percent co-immunoprecipitated and EC50 results are on record in publication PMC1919475.

Experiment [1] deals with ECFP-CSB expressed in CS1AN.S3.G2 cells (human) (UniProt Q03468). Description: co-IP.
Experiment [2] concerns the target Cockayne syndrome B (CSB) protein, full-length, purified recombinant (human) (UniProt Q03468). Description: ELISA.
In experiment [3] the target is APE1, major human apurinic/apyrimidinic (AP) endonuclease, full-length, purified recombinant (human) (UniProt P27695). The experiment can be described thus: ELISA. In general terms: ELISA stands for enzyme-linked immunosorbent assay.
The target in experiment [4] is APE1, endogenous in ECFP-CSB-CS1AN cell extracts (human (endogenous in CS1AN fibroblasts)) (UniProt P27695). Description: co-IP.

Regarding “APE1, endogenous in ECFP-CSB-CS1AN cell extracts (from UniProt P27695 1-318) (enzyme)”, the percent co-immunoprecipitated in experiment [1] was 5 to 50%.

What is called EC50 is the concentration that produces a half-maximal response. As to “APE1, major human apurinic/apyrimidinic (AP) endonuclease, full-length, purified recombinant (from UniProt P27695 1-318) (enzyme)”, in experiment [2], the EC50 was above 20 nM.

Take “Cockayne syndrome B (CSB) protein, full-length, purified recombinant (from UniProt Q03468 1-1493) (natural protein)”: the 50% effective concentration (EC50) in experiment [3] was above 4.5 nM.

In experiment [4], “ECFP-CSB expressed in CS1AN.S3.G2 cells (from UniProt Q03468 1-1493) (natural protein)” gave a percent co-immunoprecipitated of 5 to 50%.
